Target: human IL-6 (human, UniProt P05231 30-212)
Test: SPR Biacore, supernatant, Protein A capture, 37 C
Procedure: Those four positions were selected based on their tolerance for mutations as observed in bacterial and mammalian screens. […] These cultures were centrifuged and supernatants containing secreted antibodies were harvested and diluted in HBS-EP+ running buffer (1:20 ratio).
Antibodies were captured on a Protein A chip (GE) by injecting 1:20 cell supernatant dilutions at 10 μL/min for 60 seconds. […] The sensor chip was regenerated by a 60 seconds injection of 10 mM Glycine pH 1.7 at the flow rate of 50 μL/min. […] For this setup, 1 μg/mL of purified antibody was injected over a Protein A chip at 10 μL/min for 25 seconds. […] The sensor chip was regenerated by a 60 seconds injection of 10 mM Glycine pH 1.7 at flow rate of 50 μL/min. Data analysis for supernatant and purified samples were performed using BIAevaluation software (GE). All sensorgrams were double reference subtracted and fit using a 1:1 Langmuir binding model.

human IL-6, sequence (P05231 30-212 limits assumed): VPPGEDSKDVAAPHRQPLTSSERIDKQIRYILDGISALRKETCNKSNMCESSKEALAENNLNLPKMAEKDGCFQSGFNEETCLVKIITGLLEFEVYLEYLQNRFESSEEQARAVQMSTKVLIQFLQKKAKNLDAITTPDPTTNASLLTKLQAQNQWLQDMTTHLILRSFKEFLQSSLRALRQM

| Binder | Kd [nM] | koff [s⁻¹] | kon [M⁻¹ s⁻¹] |
| --- | --- | --- | --- |
| Anti-IL-6 antibody, heavy chain S35H, G66D, L100R / light chain WT (antibody, IgG1, V domains shown, IgG1; variable domains only) VH: EVQLVESGGGLVQPGGSLRLSCAASGFTFSPFAMHWVRQAPGKGLEWVAKISPGGSWTYYSDTVTDRFTFSLDTSKSTAYLQMNSLRAEDTAVYYCARQRWGYYALDIWGQGTLVTVSS VL: DIQLTQSPSSLSASVGDRVTITCSASISVSYMYWYQQKPGKAPKLLIYDMSNLASGVPSRFSGSGSGTDFTLTISSLQPEDFATYYCMQWSGYPYTFGQGTKVEIK | 1.01 | 0.000957 | 951000 |
| Anti-IL-6 antibody, heavy chain S35H, G66D, Q99F / light chain M32L, M50D, N52S, M88Q (antibody, IgG1, V domains shown, IgG1; variable domains only; VL is variant III) VH: EVQLVESGGGLVQPGGSLRLSCAASGFTFSPFAMHWVRQAPGKGLEWVAKISPGGSWTYYSDTVTDRFTFSLDTSKSTAYLQMNSLRAEDTAVYYCARFLWGYYALDIWGQGTLVTVSS VL: DIQLTQSPSSLSASVGDRVTITCSASISVSYLYWYQQKPGKAPKLLIYDDSSLASGVPSRFSGSGSGTDFTLTISSLQPEDFATYYCQQWSGYPYTFGQGTKVEIK | 0.0997 | 0.000113 | 1.14e+06 |
| Anti-IL-6 antibody, heavy chain S35H, G66D, L100T / light chain WT (antibody, IgG1, V domains shown, IgG1; variable domains only) VH: EVQLVESGGGLVQPGGSLRLSCAASGFTFSPFAMHWVRQAPGKGLEWVAKISPGGSWTYYSDTVTDRFTFSLDTSKSTAYLQMNSLRAEDTAVYYCARQTWGYYALDIWGQGTLVTVSS VL: DIQLTQSPSSLSASVGDRVTITCSASISVSYMYWYQQKPGKAPKLLIYDMSNLASGVPSRFSGSGSGTDFTLTISSLQPEDFATYYCMQWSGYPYTFGQGTKVEIK | 0.217 | 0.000724 | 3.34e+06 |
| Anti-IL-6 antibody, heavy chain S35H, G66D, L100S / light chain WT (antibody, IgG1, V domains shown, IgG1; variable domains only) VH: EVQLVESGGGLVQPGGSLRLSCAASGFTFSPFAMHWVRQAPGKGLEWVAKISPGGSWTYYSDTVTDRFTFSLDTSKSTAYLQMNSLRAEDTAVYYCARQSWGYYALDIWGQGTLVTVSS VL: DIQLTQSPSSLSASVGDRVTITCSASISVSYMYWYQQKPGKAPKLLIYDMSNLASGVPSRFSGSGSGTDFTLTISSLQPEDFATYYCMQWSGYPYTFGQGTKVEIK | 0.196 | 0.000644 | 3.28e+06 |
| Anti-IL-6 antibody, heavy chain S35H, G66D, Q99A / light chain M32L, M50D, N52S, M88Q (antibody, IgG1, V domains shown, IgG1; variable domains only; VL is variant III) VH: EVQLVESGGGLVQPGGSLRLSCAASGFTFSPFAMHWVRQAPGKGLEWVAKISPGGSWTYYSDTVTDRFTFSLDTSKSTAYLQMNSLRAEDTAVYYCARALWGYYALDIWGQGTLVTVSS VL: DIQLTQSPSSLSASVGDRVTITCSASISVSYLYWYQQKPGKAPKLLIYDDSSLASGVPSRFSGSGSGTDFTLTISSLQPEDFATYYCQQWSGYPYTFGQGTKVEIK | 3.07 | 0.0045 | 1.47e+06 |
| Anti-IL-6 antibody, heavy chain S35H, G66D, L100W / light chain M32L, M50D, N52S, M88Q (antibody, IgG1, V domains shown, IgG1; variable domains only; VL is variant III) VH: EVQLVESGGGLVQPGGSLRLSCAASGFTFSPFAMHWVRQAPGKGLEWVAKISPGGSWTYYSDTVTDRFTFSLDTSKSTAYLQMNSLRAEDTAVYYCARQWWGYYALDIWGQGTLVTVSS VL: DIQLTQSPSSLSASVGDRVTITCSASISVSYLYWYQQKPGKAPKLLIYDDSSLASGVPSRFSGSGSGTDFTLTISSLQPEDFATYYCQQWSGYPYTFGQGTKVEIK | 1.98 | 0.00124 | 625000 |
| Anti-IL-6 antibody, heavy chain S35H, G66D, Q99E / light chain WT (antibody, IgG1, V domains shown, IgG1; variable domains only) VH: EVQLVESGGGLVQPGGSLRLSCAASGFTFSPFAMHWVRQAPGKGLEWVAKISPGGSWTYYSDTVTDRFTFSLDTSKSTAYLQMNSLRAEDTAVYYCARELWGYYALDIWGQGTLVTVSS VL: DIQLTQSPSSLSASVGDRVTITCSASISVSYMYWYQQKPGKAPKLLIYDMSNLASGVPSRFSGSGSGTDFTLTISSLQPEDFATYYCMQWSGYPYTFGQGTKVEIK | 3.91 | 0.00193 | 493000 |
| Anti-IL-6 antibody, heavy chain S35H, G66D, Q99A / light chain WT (antibody, IgG1, V domains shown, IgG1; variable domains only) VH: EVQLVESGGGLVQPGGSLRLSCAASGFTFSPFAMHWVRQAPGKGLEWVAKISPGGSWTYYSDTVTDRFTFSLDTSKSTAYLQMNSLRAEDTAVYYCARALWGYYALDIWGQGTLVTVSS VL: DIQLTQSPSSLSASVGDRVTITCSASISVSYMYWYQQKPGKAPKLLIYDMSNLASGVPSRFSGSGSGTDFTLTISSLQPEDFATYYCMQWSGYPYTFGQGTKVEIK | 0.717 | 0.00132 | 1.85e+06 |
| Anti-IL-6 antibody, heavy chain S35H, G66D, Q99E / light chain M32L, M50D, N52S, M88Q (antibody, IgG1, V domains shown, IgG1; variable domains only; VL is variant III) VH: EVQLVESGGGLVQPGGSLRLSCAASGFTFSPFAMHWVRQAPGKGLEWVAKISPGGSWTYYSDTVTDRFTFSLDTSKSTAYLQMNSLRAEDTAVYYCARELWGYYALDIWGQGTLVTVSS VL: DIQLTQSPSSLSASVGDRVTITCSASISVSYLYWYQQKPGKAPKLLIYDDSSLASGVPSRFSGSGSGTDFTLTISSLQPEDFATYYCQQWSGYPYTFGQGTKVEIK | 4.71 | 0.00089 | 189000 |
| Anti-IL-6 antibody, heavy chain S35H, G66D, L100Y / light chain WT (antibody, IgG1, V domains shown, IgG1; variable domains only) VH: EVQLVESGGGLVQPGGSLRLSCAASGFTFSPFAMHWVRQAPGKGLEWVAKISPGGSWTYYSDTVTDRFTFSLDTSKSTAYLQMNSLRAEDTAVYYCARQYWGYYALDIWGQGTLVTVSS VL: DIQLTQSPSSLSASVGDRVTITCSASISVSYMYWYQQKPGKAPKLLIYDMSNLASGVPSRFSGSGSGTDFTLTISSLQPEDFATYYCMQWSGYPYTFGQGTKVEIK | 0.638 | 0.000642 | 1.01e+06 |
| Anti-IL-6 antibody, heavy chain S35H, G66D, L100V / light chain WT (antibody, IgG1, V domains shown, IgG1; variable domains only) VH: EVQLVESGGGLVQPGGSLRLSCAASGFTFSPFAMHWVRQAPGKGLEWVAKISPGGSWTYYSDTVTDRFTFSLDTSKSTAYLQMNSLRAEDTAVYYCARQVWGYYALDIWGQGTLVTVSS VL: DIQLTQSPSSLSASVGDRVTITCSASISVSYMYWYQQKPGKAPKLLIYDMSNLASGVPSRFSGSGSGTDFTLTISSLQPEDFATYYCMQWSGYPYTFGQGTKVEIK | 0.244 | 0.000579 | 2.37e+06 |
| Anti-IL-6 antibody, heavy chain S35H, G66D, Q99D / light chain M32L, M50D, N52S, M88Q (antibody, IgG1, V domains shown, IgG1; variable domains only; VL is variant III) VH: EVQLVESGGGLVQPGGSLRLSCAASGFTFSPFAMHWVRQAPGKGLEWVAKISPGGSWTYYSDTVTDRFTFSLDTSKSTAYLQMNSLRAEDTAVYYCARDLWGYYALDIWGQGTLVTVSS VL: DIQLTQSPSSLSASVGDRVTITCSASISVSYLYWYQQKPGKAPKLLIYDDSSLASGVPSRFSGSGSGTDFTLTISSLQPEDFATYYCQQWSGYPYTFGQGTKVEIK | 3.61 |  |  |
| Anti-IL-6 antibody, heavy chain S35H, G66D, L100Y / light chain M32L, M50D, N52S, M88Q (antibody, IgG1, V domains shown, IgG1; variable domains only; VL is variant III) VH: EVQLVESGGGLVQPGGSLRLSCAASGFTFSPFAMHWVRQAPGKGLEWVAKISPGGSWTYYSDTVTDRFTFSLDTSKSTAYLQMNSLRAEDTAVYYCARQYWGYYALDIWGQGTLVTVSS VL: DIQLTQSPSSLSASVGDRVTITCSASISVSYLYWYQQKPGKAPKLLIYDDSSLASGVPSRFSGSGSGTDFTLTISSLQPEDFATYYCQQWSGYPYTFGQGTKVEIK | 0.934 | 0.000801 | 858000 |
| Anti-IL-6 antibody, heavy chain S35H, G66D, Q99D / light chain WT (antibody, IgG1, V domains shown, IgG1; variable domains only) VH: EVQLVESGGGLVQPGGSLRLSCAASGFTFSPFAMHWVRQAPGKGLEWVAKISPGGSWTYYSDTVTDRFTFSLDTSKSTAYLQMNSLRAEDTAVYYCARDLWGYYALDIWGQGTLVTVSS VL: DIQLTQSPSSLSASVGDRVTITCSASISVSYMYWYQQKPGKAPKLLIYDMSNLASGVPSRFSGSGSGTDFTLTISSLQPEDFATYYCMQWSGYPYTFGQGTKVEIK | 2.34 | 0.00302 | 1.29e+06 |
